Measurements published in patent CN101151278A.

Columns and labels:
可溶性CD20 (Genentech) = molecular target: T1, 可溶性CD20 (Genentech) (UniProt P11836); assay: ELISA, soluble CD20 coated on plate
T1 sequence (looked up): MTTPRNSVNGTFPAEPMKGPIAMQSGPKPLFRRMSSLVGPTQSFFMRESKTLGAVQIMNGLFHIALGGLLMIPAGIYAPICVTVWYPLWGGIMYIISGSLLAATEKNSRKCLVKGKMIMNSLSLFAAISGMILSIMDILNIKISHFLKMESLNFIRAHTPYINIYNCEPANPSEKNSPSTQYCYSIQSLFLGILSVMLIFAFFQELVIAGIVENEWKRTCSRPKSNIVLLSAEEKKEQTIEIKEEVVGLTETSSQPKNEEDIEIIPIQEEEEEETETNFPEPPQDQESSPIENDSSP

[1] = molecular target: T2, CD20 on WIL2-S cells (human) (UniProt P11836); assay: cell ELISA, WIL2-S; ratio vs chimeric 2H7.v6.8
T2 sequence (looked up): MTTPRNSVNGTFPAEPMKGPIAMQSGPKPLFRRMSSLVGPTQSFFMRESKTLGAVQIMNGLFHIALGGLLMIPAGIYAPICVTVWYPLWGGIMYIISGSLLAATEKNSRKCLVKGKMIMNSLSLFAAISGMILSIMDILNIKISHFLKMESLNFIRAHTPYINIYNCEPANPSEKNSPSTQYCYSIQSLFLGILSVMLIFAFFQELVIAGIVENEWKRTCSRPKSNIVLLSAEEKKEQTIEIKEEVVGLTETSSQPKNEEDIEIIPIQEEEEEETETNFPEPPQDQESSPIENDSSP

Binder | fold increase in binding (vs 2H7.v16 and 2H7.v588) (可溶性CD20 (Genentech)) | 相对结合 [1]
hu2H7.v511 (antibody, human IgG1, kappa, V domains shown) VH: EVQLVESGGGLVQPGGSLRLSCAASGYTFTSYNMHWVRQAPGKGLEWVGAIYPGNGATSYNQKFKGRFTISVDKSKNTLYLQMNSLRAEDTAVYYCARVVYYSYRYWYFDVWGQGTLVTVSS VL: DIQMTQSPSSLSASVGDRVTITCRASSSVSYLHWYQQKPGKAPKPLIYAPSNLASGVPSRFSGSGSGTDFTLTISSLQPEDFATYYCQQWAFNPPTFGQGTKVEIKR | 90 fold | –
人源化2H7型式2 (2H7.v2) (antibody, IgG1, V domains shown) VH: EVQLVESGGGLVQPGGSLRLSCAASGYTFTSYNMHWVRQAPGKGLEWVAAIYPGNGDTSYNQKFKGRFTISRDNSKNTLYLQMNSLRAEDTAVYYCARVVYYSNSYWYFDVWGQGTLVTVSS VL: DIQMTQSPSSLSASVGDRVTITCRASSSVSYMHWYQQKPGKAPKLLIYAPSNLASGVPSRFSGSGSGTDFTLTISSLQPEDFATYYCQQWSFNPPTFGQGTKVEIKR | – | 0.01
2H7.v4 (antibody, IgG1, V domains shown) VH: EVQLVESGGGLVQPGGSLRLSCAASGYTFTSYNMHWVRQAPGKGLEWVAAIYPGNGDTSYNQKFKGRFTISVDNSKNTLYLQMNSLRAEDTAVYYCARVVYYSNSYWYFDVWGQGTLVTVSS VL: DIQMTQSPSSLSASVGDRVTITCRASSSVSYMHWYQQKPGKAPKLLIYAPSNLASGVPSRFSGSGSGTDFTLTISSLQPEDFATYYCQQWSFNPPTFGQGTKVEIKR | – | 0.21
2H7.v3 (antibody, IgG1, V domains shown) VH: EVQLVESGGGLVQPGGSLRLSCAASGYTFTSYNMHWVRQAPGKGLEWVAAIYPGNGDTSYNQKFKGRFTISVDKSKNTLYLQMNSLRAEDTAVYYCARVVYYSNSYWYFDVWGQGTLVTVSS VL: DIQMTQSPSSLSASVGDRVTITCRASSSVSYMHWYQQKPGKAPKLLIYAPSNLASGVPSRFSGSGSGTDFTLTISSLQPEDFATYYCQQWSFNPPTFGQGTKVEIKR | – | 0.21
